Reference: US20230151069A1, “Cyclic Peptides” (LIFEARC, priority 2020, published 2023)

Columns and labels:
5XFAD mice [1] = assay: Active immunisation, plaque load by immunohistochemistry in 5XFAD brain sections; format: in vivo; details: 5XFAD mouse cortex, FIG. 29
Method: 5XFAD mice were immunized with antigen [Thioacetal bridged amyloid-beta peptide 1-14—KLH conjugate; DAC*[…]*HH[Cys]-amide (*S—CH—S bridged, cyclised via positions 3 and 12)] as described previously.
Mice were sacrificed via CO2 anesthetization followed by cervical dislocation. Brain samples were carefully dissected and post-fixed in 4% phosphate-buffered formalin at 4° C. Human and mouse tissue samples were processed as previously described 4. In brief, 4 μm paraffin sections were deparaffinized in xylene, followed by rehydration in a series of ethanol. […] Non-specific binding sites were blocked by treatment with skim milk and fetal calf serum in PBS, prior to the addition of the primary antibodies. The following antibodies were used: polyclonal antibody 24311 against […], monoclonal antibody 1-57 against pyroglumatate Aβ3-X, (Synaptic Sytems, GOttingen, Germany; 1 mg/ml; 1:500), and TAP01_4 (1:200; 2 mg/ml). Corresponding biotinylated secondary anti-human and anti-mouse antibodies (1:200) were purchased from DAKO (Glostrup, Denmark). Staining was visualized using the ABC method, with a Vectastain kit (Vector Laboratories, Burlingame, USA) and diaminobenzidine (DAB) as chromogen. Counterstaining was carried out with hematoxylin.
Plaque load was quantified as previously described (G. Antonios et al., Alzheimer therapy with an antibody against N-terminal Abeta 4-X and pyroglutamate Abeta 3-X. Scientific reports 5, 17338 (2015)). 5-6 paraffin embedded sections, which were at least 80 μm afar from each other, were stained simultaneously with DAB as chromogen. For Thioflavin S fluorescent staining tissue sections were deparaffinized and rehydrated, washed twice in deionized water and then treated with 1% (w/v) ThioflavinS in aqueous solution and counterstained in a 1% (w/v) aqueous solution of 4′6-diamidin-2-phenylindol. The relative Aβ load was evaluated using an Olympus BX-51 microscope equipped with an Olympus DP-50 camera and the ImageJ software (NIH, USA). Representative pictures of 100× magnification were systematically captured. […]

5XFAD mice [2] = assay: Active immunisation, in vivo glucose metabolism by 18F-FDG-PET/MRI in 5XFAD mice; parameters: species or system mouse; details: immunized 5XFAD mice, FIG. 30
Method: 18F-FDG-PET/MRI was performed on 5xFAD mice as well as age matched C57Bl/6J wild type mice. Mice were fasted overnight and blood glucose levels were measured before tracer injection. 11.46 to 20.53 MBq (mean 16.81 MBq) 18F-FDG was injected intravenously into a tail vein with a maximum volume of 200 μl followed by an uptake period of 45 minutes. Mice were awake during the uptake process. PET scans were performed for 20 minutes using a small animal 1 Tesla nanoScan PET/MRI (Mediso, Hungary). Mice were anesthetized with isoflurane supplemented with oxygen during the scans and kept on a heated bed (37° C.). Respiratory rate was measured throughout the imaging process. […]
All images were analyzed using PMOD v3.9 (PMOD Technologies, Switzerland) as described before (Bouter et al). […] PET VOI statistics (kBq/cc) were generated for all brain areas and standardized uptake values (SUVs) were calculated [SUV=tissue activity concentration average (kBq/cc)×body weight (g)/injected dose (kBq)] for semi-quantitative analysis. SUVs of 18F-FDG-PET scans were corrected for measured blood glucose levels [SUVGIc=SUV x blood glucose level (mg/dl)]. […]
In vivo glucose metabolism on Alzheimer mice (5XFAD) as well as age matched C57Bl/6J wild type mice was analysed by 18F-FDG-PET/MRI imaging as described above.

[3] = test system: full-length amyloid-beta 1-42; assay: Reactivity of antibodies induced by the cyclic peptide with full-length amyloid-beta; format: in vivo; details: antibodies induced by immunisation
Method: • 1. Coat 384-well plate with 30 μL/well of 100 ng/ml PSL amyloid 1-42 peptide (Human-Peptide Specialty Laboratories-CEM1904161) diluted in carb/bicarb buffer • 2. Incubate at 37° C. for 1 hour • 3. Wash the plate (NUNC 384 program) • 4. […] Incubate at 4° C. overnight • 6. Wash the plate (NUNC 384 program) • 7. […] Transfer 30 μL/well onto the assay plate • 10. Incubate at 37° C. for 1 hour • 11. Wash the plate (NUNC 384 program) • 12. […] Incubate at 37° C. for 1 hour • 14. Wash the plate (NUNC 384 program) • 15. […] Incubate at RT for 10 min in the dark • 17. […] Coat 384-well plate with 30 μL/well of 100 ng/ml PSL amyloid pE3-42 peptide (Human-Peptide Specialty Laboratories-CEM062210 Pyr) diluted in carb/bicarb buffer • 2. Incubate at 37° C. for 1 hour • 3. Wash the plate (NUNC 384 program) • 4. […] Incubate at 4° C. overnight • 6. Wash the plate (NUNC 384 program) • 7. […] Transfer 30 μL/well onto the assay plate • 10. Incubate at 37° C. for 1 hour • 11. Wash the plate (NUNC 384 program) • 12. […] Incubate at 37° C. for 1 hour • 14. Wash the plate (NUNC 384 program) • 15. […] Incubate at RT for 10 min in the dark • 17.

Substance: DAC*FRHDSGYEC*HH[Cys]-amide (*S—CH—S bridged, cyclised via positions 3 and 12)
- amyloid-plaque load in brain tissue (pan-Abeta, pyroglutamate Aβ3-X, Thioflavin S, N-truncated Aβ stainings) (5XFAD mice [1]; listed as 3-12 linked Aβ1-14 cyclic peptide): reduction in amyloid-plaque load
- amyloid-plaque load in brain tissue (pan-Abeta, pyroglutamate Aβ3-X, Thioflavin S, N-truncated Aβ stainings) (5XFAD mice [1]; listed as cyclised Aβ peptides): strong reduction of plaques
- amyloid-plaque load in brain tissue (pan-Abeta, pyroglutamate Aβ3-X, Thioflavin S, N-truncated Aβ stainings) (5XFAD mice [1]; listed as cyclized Aβ peptide): significant reduction in plaque load
- brain glucose metabolism (18F-FDG uptake) (5XFAD mice [2]): significant rescue
- reactivity of induced antibodies with full-length amyloid-beta 1-42 [3]: do not react
